# According to article PMC9636267 (2022):
# Positions count from the first letter of the chain named. Where two headings read alike, the source gives them in different places.
# T1: HCoV-229E S1 subunit (17–560 aa) (human coronavirus 229E, UniProt P15423 17-560)
# T1 chain: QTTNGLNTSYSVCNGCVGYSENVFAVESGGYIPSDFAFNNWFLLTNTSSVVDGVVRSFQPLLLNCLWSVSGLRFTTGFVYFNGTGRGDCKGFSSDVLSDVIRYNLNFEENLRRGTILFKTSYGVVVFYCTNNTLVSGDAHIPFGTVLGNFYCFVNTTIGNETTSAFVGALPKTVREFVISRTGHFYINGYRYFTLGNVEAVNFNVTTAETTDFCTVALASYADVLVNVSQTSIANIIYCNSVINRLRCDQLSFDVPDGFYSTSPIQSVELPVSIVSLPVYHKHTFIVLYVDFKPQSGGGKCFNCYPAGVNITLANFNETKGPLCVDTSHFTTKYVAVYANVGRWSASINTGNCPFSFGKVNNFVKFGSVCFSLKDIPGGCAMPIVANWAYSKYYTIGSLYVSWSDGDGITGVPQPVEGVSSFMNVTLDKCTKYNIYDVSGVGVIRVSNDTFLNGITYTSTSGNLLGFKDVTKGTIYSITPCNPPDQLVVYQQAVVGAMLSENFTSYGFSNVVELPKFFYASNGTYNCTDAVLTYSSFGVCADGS
# T2: HCoV-229E RBD (294–435 aa) (human coronavirus 229E, UniProt P15423 294-435)
# T2 chain: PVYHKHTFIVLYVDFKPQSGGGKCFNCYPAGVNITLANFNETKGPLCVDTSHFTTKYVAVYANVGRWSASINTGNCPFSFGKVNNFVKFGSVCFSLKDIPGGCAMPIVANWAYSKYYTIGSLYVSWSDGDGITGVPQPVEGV
# B1: HCoV-229E S ectodomain (17–1115 aa), 229E S trimer (domain or fragment)
# chain: QTTNGLNTSYSVCNGCVGYSENVFAVESGGYIPSDFAFNNWFLLTNTSSVVDGVVRSFQPLLLNCLWSVSGLRFTTGFVYFNGTGRGDCKGFSSDVLSDVIRYNLNFEENLRRGTILFKTSYGVVVFYCTNNTLVSGDAHIPFGTVLGNFYCFVNTTIGNETTSAFVGALPKTVREFVISRTGHFYINGYRYFTLGNVEAVNFNVTTAETTDFCTVALASYADVLVNVSQTSIANIIYCNSVINRLRCDQLSFDVPDGFYSTSPIQSVELPVSIVSLPVYHKHTFIVLYVDFKPQSGGGKCFNCYPAGVNITLANFNETKGPLCVDTSHFTTKYVAVYANVGRWSASINTGNCPFSFGKVNNFVKFGSVCFSLKDIPGGCAMPIVANWAYSKYYTIGSLYVSWSDGDGITGVPQPVEGVSSFMNVTLDKCTKYNIYDVSGVGVIRVSNDTFLNGITYTSTSGNLLGFKDVTKGTIYSITPCNPPDQLVVYQQAVVGAMLSENFTSYGFSNVVELPKFFYASNGTYNCTDAVLTYSSFGVCADGSIIAVQPRNVSYDSVSAIVTANLSIPSNWTTSVQVEYLQITSTPIVVDCSTYVCNGNVRCVELLKQYTSACKTIEDALRNSARLESADVSEMLTFDKKAFTLANVSSFGDYNLSSVIPSLPTSGSRVAGRSAIEDILFSKLVTSGLGTVDADYKKCTKGLSIADLACAQYYNGIMVLPGVADAERMAMYTGSLIGGIALGGLTSAVSIPFSLAIQARLNYVALQTDVLQENQKILAASFNKAMTNIVDAFTGVNDAITQTSQALQTVATALNKIQDVVNQQGNSLNHLTSQLRQNFQAISSSIQAIYDRLDTIQADQQVDRLITGRLAALNVFVSHTLTKYTEVRASRQLAQQKVNECVKSQSKRYGFCGNGTHIFSIVNAAPEGLVFLHTVLLPTQYKDVEAWSGLCVDGTNGYVLRQPNLALYKEGNYYRITSRIMFEPRIPTMADFVQIENCNVTFVNISRSELQTIVPEYIDVNKTLQELSYKLPNYTVPDLVVEQYNQTILNLTSEISTLENKSAELNYTVQKLQTLIDNINSTLVDLKWLNRVETYIKWP
# B2: Fab C04 (Fab, V domains shown)
# VH: EVQLVESGGGLVQPGGSLRLSCAASGFNISSSYIHWVRQAPGKGLEWVASIYSSYGYTYYADSVKGRFTISADTSKNTAYLQMNSLRAEDTAVYYCARWWASVGGAGGGLDYWGQGTLVTVSS
# VL: DIQMTQSPSSLSASVGDRVTITCRASQSVSSAVAWYQQKPGKAPKLLIYSASSLYSGVPSRFSGSRSGTDFTLTISSLQPEDFATYYCQQGYGWLITFGQGTKVEIK
# B3: Fab S11 (Fab, V domains shown)
# VH: B2 VH with A101I, S102T, V103F
# VL: B2 VL with G93A, L95R, I96N
# What was measured:
# Test in all cases: SPR
# R17 [1] = biological target: R17
# R10 [2] = biological target: R10
# R07 [3] = biological target: R07
# S02 [4] = biological target: S02
# S15 [5] = biological target: S15
# R14 [6] = biological target: R14
# S08 [7] = biological target: S08
# S10 [8] = biological target: S10
# R17 [9] = biological target: R17; remark: listed apart in the source
# R10 [10] = biological target: R10; remark: listed apart in the source
# R07 [11] = biological target: R07; remark: listed apart in the source
# S02 [12] = biological target: S02; remark: listed apart in the source
# S15 [13] = biological target: S15; remark: listed apart in the source
# R14 [14] = biological target: R14; remark: listed apart in the source
# S08 [15] = biological target: S08; remark: listed apart in the source
# S10 [16] = biological target: S10; remark: listed apart in the source
# [17] = biological target: T1, HCoV-229E S1 subunit (17–560 aa)
# [18] = biological target: T2, HCoV-229E RBD (294–435 aa)
# [19] = biological target: B1
# [20] = biological target: T1, HCoV-229E S1 subunit (17–560 aa)
# [21] = biological target: T2, HCoV-229E RBD (294–435 aa)
# [22] = biological target: B1
# [23] = biological target: T2, HCoV-229E RBD (294–435 aa)
# [24] = biological target: B1
# [25] = biological target: T2, HCoV-229E RBD (294–435 aa)
# [26] = biological target: B1
# [27] = biological target: T2, HCoV-229E RBD (294–435 aa)
# [28] = biological target: B1
binder,measurement,setting,value
B1,koff,R17 [1],0.0024 s⁻¹
same,Kd,R10 [2],430 pM
same,koff,R10 [2],0.0012 s⁻¹
same,koff,R07 [3],0.0011 s⁻¹
same,Kd,S02 [4],750 pM
same,koff,S02 [4],0.0035 s⁻¹
same,Kd,S15 [5],440 pM
same,koff,S15 [5],0.00098 s⁻¹
same,koff,R14 [6],0.0039 s⁻¹
same,koff,S08 [7],0.0054 s⁻¹
same,Kd,S10 [8],280 pM
same,koff,S10 [8],0.0018 s⁻¹
same,Kd,R17 [9],2400 pM
same,Kd,R10 [10],400 pM
same,Kd,R07 [11],2000 pM
same,Kd,S02 [12],800 pM
same,Kd,S15 [13],400 pM
same,Kd,R14 [14],2700 pM
same,Kd,S08 [15],2400 pM
same,Kd,S10 [16],300 pM
B2,Kd,[17],7300 pM
same,Kd,[18],2900 pM
same,Kd,[19],4400 pM
same,koff,[20],0.007 s⁻¹
same,koff,[21],0.0055 s⁻¹
same,koff,[22],0.0064 s⁻¹
B3,Kd,[23],210 pM
same,Kd,[24],380 pM
same,Kd,[25],200 pM
same,Kd,[26],400 pM
same,koff,[27],0.00081 s⁻¹
same,koff,[28],0.00054 s⁻¹
